Data published in PMC11846896, “Phage parasites targeting phage homologous recombinases provide antiviral immunity” (Nature Communications, 2025).
Values belong to the compound of their own block, whether it stands above or below them.

Key:
Stl2-Sak4_52A complex = molecular target: T1, Stl2-Sak4_52A complex (Staphylococcus phage 52A, UniProt Q4ZAS5); experiment: cryo-EM structure of the complex ([…] Å); type: binding; settings: 2 mM ATPγS, 20 mM Tris pH 7.6, 100 mM NaCl, 1 mM DTT, 37 °C 10 min, Stl2 1:1; site at Sak4_52A protomer interface (Lys41, Thr42, Tyr216 of one; Lys229, Arg231, His232 of the next)
T1 construct: both from E. coli BL21, mixed 1:1; with SaPI2 transcriptional repressor Stl (Staphylococcus aureus)
T1 sequence (A0FIL5 entry or part of it): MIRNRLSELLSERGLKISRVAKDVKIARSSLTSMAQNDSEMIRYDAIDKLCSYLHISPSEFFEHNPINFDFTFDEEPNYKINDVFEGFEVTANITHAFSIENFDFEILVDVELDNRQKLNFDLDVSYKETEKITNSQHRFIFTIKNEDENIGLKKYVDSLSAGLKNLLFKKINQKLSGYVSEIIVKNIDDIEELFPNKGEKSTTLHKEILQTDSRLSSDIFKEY
T1 sequence (Q4ZAS5 entry or part of it): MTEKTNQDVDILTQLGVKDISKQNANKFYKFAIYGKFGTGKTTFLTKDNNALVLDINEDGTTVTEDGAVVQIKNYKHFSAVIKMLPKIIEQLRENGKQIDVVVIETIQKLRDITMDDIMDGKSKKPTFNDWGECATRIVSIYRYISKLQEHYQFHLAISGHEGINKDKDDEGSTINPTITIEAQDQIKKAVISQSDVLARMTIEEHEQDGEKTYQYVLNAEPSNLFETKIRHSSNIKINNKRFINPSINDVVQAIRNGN

[1] = test system: Stl2-ΔCTD (Staphylococcus aureus pathogenicity island SaPI2); experiment: EMSA; settings: EMSA: 20 mM Tris-HCl pH 7.0, 100 mM NaCl, 5% glycerol, 50 ng/µl BSA, 1 ng/µl salmon sperm DNA, 5 mM DTT, 2 nM FAM-DNA, room temperature 30 min; Stl2 + 5 mM …
[2] = molecular target: Sak80α, full-length, untagged, co-expressed with Stl2 from pETDuet-1 (phage 80α (Staphylococcus aureus phage)); experiment: cryo-EM structure; Stl2-Sak80α complex co-expressed from pETDuet-1 and co-purified, third elution peak of Superose 6, 1.5 mg/ml; D1 symmetry
[3] = molecular target: Sak80αΔCTD (truncated Sak80α with its CTD removed) (phage 80α (Staphylococcus aureus phage)); experiment: cryo-EM structure; Sak80αΔCTD at 1.5 mg/ml in 20 mM Tris-HCl pH 7.6, 100 mM NaCl, 1 mM DTT; C18 symmetry
[4] = molecular target: Stl2 (SaPI2-encoded transcriptional repressor Stl), wild type, C-terminally histidine tagged (Staphylococcus aureus (SaPI2)); experiment: mass photometry; single proteins; diluted to 50 to 100 nM in 20 mM Tris pH 8.0, 0.5 mM EDTA, 200 mM NaCl, 2 mM DTT; self-association (dimer and large oligomers)

Compound: Nc1ncnc2c1ncn2[C@@H]1O[C@H](COP(=O)(O)OP(=O)(O)OP(O)(O)=S)[C@@H](O)[C@H]1O [ATPγS]
cryo-EM structure of the complex (3.35 Å) (Stl2-Sak4_52A complex): The nucleotide ATPγS is boxed and zoomed in on the left-hand side

Compound: SaPI2 IGR (stl-str intergenic region)
binding signal (fold reduction in affinity vs wild type) [1]: 30

stoichiometry N [2]: 17
Compound: Sak80α, full-length, untagged, co-expressed with Stl2 from pETDuet-1 (natural protein)

stoichiometry N [3]: 18
Compound: Sak80αΔCTD (truncated Sak80α with its CTD removed) (domain or fragment)

Compound: Stl2 (SaPI2-encoded transcriptional repressor Stl), wild type, C-terminally histidine tagged (natural protein)
stoichiometry N [4]: 2
